Measured values as given in the supplement of paper PMC11811203.

B1: THAP1; numbered along this chain (parent)
chain: MVQSCSAYGCKNRYDKDKPVSFHKFPLTRPSLCKEWEAAVRRKNFKPTKYSSICSEHFTPDCFKRECNNKLLKENAVPTIFLCTEPHDKKEDLLEPQEQLPPPPLPPPVSQVDAAIGLLMPPLQTPVNLSVFCDHNYTVEDTMHQRKRIHQLEQQVEKLRKKLKTAQQRCRRQERQLEKLKEVVHFQKEKDDVSERGYVILPNDYFEIVEVPA

Variants of: B1
Assay: THAP1 transcriptional activity (GFP+/GFP- enrichment relative to wild-type constructs) (ratio to WT); higher = more THAP1 activity (PSMB5 reporter activation)
Conditions: with PSMB5 promoter-GFP reporter
Summary of the method: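 A site-saturation library of human THAP1 (residues 2–213, each changed to all 20 amino acids) was transduced by lentivirus at MOI ~0.3, in duplicate, into THAP1-knockout HEK-293T cells carrying mClover3 knocked in at endogenous PSMB5. After five days, BFP+ cells were sorted into GFP-dim and GFP-bright bins, and variants were counted by Illumina sequencing of genomic DNA amplicons. Activity is the replicate-mean bright/dim read fold change divided by the mean of wild-type synonymous constructs.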

THAP1 transcriptional activity, by site and new letter:
Q145: K 0.783; L 0.544; M 0.767; N 0.719; P 0.652; R 0.646; S 0.592; T 1.05; V 0.59; W 0.755; Y 0.618
R146: A 0.79; D 0.548; F 0.489; I 0.358; M 0.595; N 0.584; P 0.535; Q 0.849; S 1; W 0.39; Y 0.539
K147: A 0.537; D 0.605; E 0.626; F 0.361; G 0.51; H 0.438; I 0.346; L 0.458; M 0.271; N 0.976; P 0.502; R 0.9; S 0.621; T 0.664; V 0.383; W 0.458; Y 0.522
R148: A 0.487; C 0.26; D 0.202; E 0.167; F 0.196; G 0.324; K 1.02; L 0.312; M 0.261; N 0.303; P 0.18; Q 0.425; T 0.312; V 0.412; W 0.179
I149: C 0.454; D 0.218; E 0.225; F 0.539; G 0.197; H 0.248; K 0.403; N 0.465; Q 0.327; R 0.245; W 0.164; Y 0.445
H150: A 1; C 0.635; D 0.609; E 0.884; G 0.721; I 0.713; L 0.769; M 1.09; N 0.896; P 0.317; Q 1.21; R 1.19; V 1.1; W 0.976; Y 0.767
Q151: A 0.791; C 0.782; E 0.7; G 0.864; I 0.817; L 0.804; M 0.894; N 0.636; P 0.303; R 1.12; S 0.793; T 0.796; V 0.675
L152: A 0.28; C 0.209; D 0.195; E 0.227; F 0.236; G 0.249; H 0.215; I 0.29; K 0.189; M 0.249; N 0.287; P 0.177; Q 0.191; R 0.306; S 0.211; V 0.213; W 0.246
E153: C 0.315; G 0.412; I 0.393; K 0.513; M 0.461; N 0.512; Q 0.585; R 0.491; S 0.631; T 0.774; V 0.395; W 0.268; Y 0.404
Q154: A 1.06; D 0.962; E 0.776; G 0.732; I 0.779; L 0.867; M 1.17; R 0.653; S 1.24; V 0.661; W 0.539
Q155: C 0.531; D 0.521; H 0.765; I 0.473; K 0.749; M 0.674; N 0.447; P 0.175; R 0.65; S 0.563; T 0.609; V 0.773; W 0.376; Y 0.71
V156: A 0.555; C 0.708; D 0.153; E 0.213; G 0.25; H 0.201; I 0.548; K 0.343; L 0.731; M 0.475; P 0.0732; Q 0.225; R 0.349; S 0.331; T 0.468; W 0.284; Y 0.362
E157: A 1.14; C 0.685; D 0.766; G 0.865; I 1.2; L 0.434; M 1.03; N 0.914; P 0.228; Q 0.766; R 0.765; S 1.39; V 0.835; W 0.741; Y 0.488
K158: D 0.831; E 0.562; F 0.365; G 0.542; H 0.822; I 0.55; L 0.386; M 0.607; N 0.391; P 0.175; Q 0.708; R 0.941; V 0.617; W 0.457; Y 0.666
L159: A 0.245; C 0.151; D 0.213; E 0.147; F 0.337; G 0.147; H 0.228; M 0.541; N 0.294; P 0.158; Q 0.261; R 0.193; T 0.209; V 0.327; W 0.164; Y 0.707
R160: A 0.391; C 0.269; D 0.216; F 0.252; G 0.224; H 0.433; I 0.228; K 0.689; L 0.205; M 0.278; P 0.171; Q 0.492; V 0.339; W 0.309; Y 0.263
K161: A 0.3; C 0.37; D 0.188; E 0.167; F 0.232; G 0.289; H 0.451; I 0.452; L 0.441; M 0.518; N 0.475; P 0.172; R 0.649; S 0.639; T 0.505; V 0.461; W 0.242; Y 0.195
K162: A 0.4; C 0.329; D 0.27; E 0.269; F 0.177; G 0.11; H 0.273; I 0.164; L 0.417; M 0.318; N 0.185; P 0.15; Q 0.612; S 0.461; T 0.273; V 0.232; W 0.206; Y 0.188
L163: A 0.118; C 0.422; D 0.0892; E 0.196; F 0.23; G 0.179; H 0.178; I 0.488; K 0.168; N 0.134; P 0.149; Q 0.17; R 0.163; S 0.142; T 0.195; V 0.545; W 0.188
K164: A 0.337; D 0.173; E 0.343; F 0.167; G 0.106; H 0.316; I 0.252; L 0.298; M 0.258; N 0.306; P 0.28; Q 0.304; R 1.17; S 0.326; V 0.218; W 0.146; Y 0.307
T165: C 1.22; D 0.416; E 0.6; F 0.262; H 0.785; I 0.755; K 0.633; L 0.668; N 1.38; P 0.196; Q 0.517; R 0.898; S 1.6; V 0.976; W 0.39; Y 0.379
A166: C 1.14; D 0.217; E 0.448; G 0.258; H 0.35; L 0.89; M 0.882; N 0.382; P 0.211; R 0.328; T 0.965; V 0.718; W 0.485; Y 0.705
Q167: A 0.311; D 0.239; E 0.37; F 0.28; G 0.21; H 0.575; K 0.613
